Experimental data published in paper PMC6467514.

Key:
[1] = substrate: Nc1ncnc2c1ncn2[C@@H]1O[C@H](CO)[C@@H](O)[C@H]1O; assay: stopped-flow absorbance Michaelis-Menten kinetics; assay type: biochemical, Bos taurus
[2] = substrate: Nc1ncnc2c([C@@H]3O[C@H](CO)[C@@H](O)[C@H]3O)snc12; assay: stopped-flow fluorescence Michaelis-Menten kinetics; assay type: biochemical, Bos taurus

B1: adenosine deaminase (ADA) (Bos taurus) (protein)
chain: AQTPAFNKPKVELHVHLDGAIKPETILYYGRKRGIALPADTPEELQNIIGMDKPLSLPEFLAKFDYYMPAIAGCREAVKRIAYEFVEMKAKDGVVYVEVRYSPHLLANSKVEPIPWNQAEGDLTPDEVVSLVNQGLQEGERDFGVKVRSILCCMRHQPSWSSEVVELCKKYREQTVVAIDLAGDETIEGSSLFPGHVKAYAEAVKSGVHRTVHAGEVGSANVVKEAVDTLKTERLGHGYHTLEDATLYNRLRQENMHFEVCPWSSYLTGAWKPDTEHPVVRFKNDQVNYSLNTDDPLIFKSTLDTDYQMTKNEMGFTEEEFKRLNINAAKSSFLPEDEKKELLDLLYKAYGMPSPASAEQCL
Km [1]: 25.1 ± 3.2 µM | Km [2]: 18.8 ± 3.2 µM
